These results are taken from paper PMC7893823.

Assay [1] has as its target human SET8 (KMT5A Isoform 2), Q9NQR1-2. As to the kind of experiment: gel shift assay. The settings on record: NCPapd 0.52 µM, dsDNA 50-mer competitor DNA included, read off a plot.
The target of assay [2] is nucleosome core particle (NCP) with human histones H2A, H2B, H3.1 and H4 and the 145-base pair Widom 601 DNA, P04908;P06899;P68431;P62805. Nature of the assay: gel shift assay. To be noted: NCP 0.52 µM, dsDNA 50-mer competitor DNA included, read off a plot. Background: Mobility shift assays separate free from complexed probe on a gel.

Chain of human SET8 (KMT5A Isoform 2), Q9NQR1-2 (Q9NQR1 whole entry, looked up, canonical isoform): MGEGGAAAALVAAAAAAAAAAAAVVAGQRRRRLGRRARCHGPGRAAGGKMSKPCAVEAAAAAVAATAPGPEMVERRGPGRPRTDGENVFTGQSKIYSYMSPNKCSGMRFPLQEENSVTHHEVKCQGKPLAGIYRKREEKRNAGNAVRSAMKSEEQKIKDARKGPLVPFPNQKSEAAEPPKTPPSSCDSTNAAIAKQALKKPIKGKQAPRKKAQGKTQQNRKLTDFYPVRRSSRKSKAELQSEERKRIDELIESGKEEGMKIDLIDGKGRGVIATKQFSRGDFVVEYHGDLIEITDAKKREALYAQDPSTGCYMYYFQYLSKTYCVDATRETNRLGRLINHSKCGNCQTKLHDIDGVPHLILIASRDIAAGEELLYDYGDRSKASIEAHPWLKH

For the substance “nucleosome core particle (NCP) with human histones H2A, H2B, H3.1 and H4 and the 145-base pair Widom 601 DNA (from UniProt P04908;P06899;P68431;P62805) H2A:E56T; H2A:E61T; H2A:E64T; H2A:D90S; H2A:E91T; H2A:E92T; H2B:E105T; H2B:E113T”, the response was 4.5% in assay [1] (SET8 1.0 µM, parent: est. 61) and 13% in assay [1] (SET8 2.1 µM, parent: est. 91).

As for “human SET8 (KMT5A Isoform 2) (from UniProt Q9NQR1-2) R188A; R192A”, the response in assay [2] (SET8 R188A/R192A 1.0 µM, parent: est. 61) was determined as 23%; in assay [2] (SET8 R188A/R192A 2.1 µM, parent: est. 91), 54%.
